The labels stand for the following.
B1: IL6R-BP213/IL6R-L (antibody, human IgG1)
heavy: QVQLQESGPGLVKPSETLSLTCAVSGHSISHDHAWSWVRQPPGEGLEWIGFISYSGITNYNPSLQGRVTISRDNSKNTLYLQMNSLRAEDTAVYYCARSLARTTAMDYWGEGTLVTVSSASTKGPSVFPLAPSSKSTSGGTAALGCLVKDYFPEPVTVSWNSGALTSGVHTFPAVLQSSGLYSLSSVVTVPSSSLGTQTYICNVNHKPSNTKVDKKVEPKSCDKTHTCPPCPAPDLLGGDSVFLFPPKPKDTLMISRTPEVTCVVVDVSDEDGEVKFNWYVDGVEVHNAKTKPREEQYNSTYRVVSVLTVLHQDWLNGKEYKCKVSNKALPRPIEKTISKAKGQPREPQVYTLPPSRDELTKNQVSLTCLVKGFYPSDIAVEWESNGQPENNYKTTPPVLDSDGSFFLYSKLTVDKSRWQQGNVFSCSVMHEALHNHYTQESLSLSP
light: DIQMTQSPSSLSASVGDRVTITCRASQDISSYLNWYQQKPGKAPKLLIYYTSRLHSGVPSRFSGSGSGTDFTFTISSLQPEDIATYYCQQGNTLPYTFGQGTKVEIK
notes: The common L chain is IL6R-L; copies: 2 + 2
B2: IL6R-BP187/IL6R-L (antibody, human IgG1)
heavy: B1 heavy with D235E, L236Y, D270H, K328A, R332K
light: B1 light
notes: as for B1
B3: IL6R-BP192/IL6R-L (antibody, human IgG1)
heavy: B1 heavy with Y298D, R332K
light: B1 light
notes: as for B1
B4: IL6R-BP196/IL6R-L (antibody, human IgG1)
heavy: B1 heavy with D235E, L236Y, K328A, R332K
light: B1 light
notes: as for B1
B5: IL6R-BP194/IL6R-L (antibody, human IgG1)
heavy: B1 heavy with L236Y, G239D, K328A, R332K
light: B1 light
notes: as for B1
B6: IL6R-BP190/IL6R-L (antibody, human IgG1)
heavy: B1 heavy with D235E, G239D, R332K
light: B1 light
notes: as for B1
B7: IL6R-BP197/IL6R-L (antibody)
heavy: B1 heavy with L236Y, G239D, Y298D, K328D, R332K
light: B1 light
notes: copies: 2 + 2
B8: IL6R-BP211/IL6R-L (antibody, human IgG1)
heavy: B1 heavy with K328A
light: B1 light
notes: as for B1
B9: IL6R-BP191/IL6R-L (antibody, human IgG1)
heavy: B1 heavy with K328A, R332K
light: B1 light
notes: as for B1
B10: IL6R-BP195/IL6R-L (antibody, human IgG1)
heavy: B1 heavy with L236Y, G239D, Y298D, K328A, R332K
light: B1 light
notes: as for B1
B11: IL6R-BP189/IL6R-L (antibody, human IgG1)
heavy: B1 heavy with D235E, G239D, K328A, R332K
light: B1 light
notes: as for B1
B12: IL6R-BP118/IL6R-L (antibody, human IgG1)
heavy: B1 heavy with D235E, D270H, G273P, K328S, R332A
light: B1 light
notes: copies: 2 + 2
B13: IL6R-BF648/IL6R-L (antibody, human IgG1)
heavy: not shown
light: B1 light
notes: IL6R-B3 with P238D; copies: 2 + 2
B14: IL6R-BP121/IL6R-L (antibody, human IgG1)
heavy: B1 heavy with D235E, D270H, G273P, K328Q, R332A
light: B1 light
notes: copies: 2 + 2
B15: IL6R-G1d/IL6R-L (antibody, human IgG1)
heavy: not shown
light: B1 light
notes: Anti-human IL-6 receptor IgG1 with G1d constant region (C-terminal Gly and Lys removed); also called IgG1; copies: 2 + 2
B16: IL6R-BP119/IL6R-L (antibody, human IgG1)
heavy: B1 heavy with D235E, D270H, G273P, K328M, R332A
light: B1 light
notes: copies: 2 + 2
B17: IL6R-BP912/IL6R-L (antibody, human IgG1)
heavy: B1 heavy with D235E, D270H, G273P
light: B1 light
notes: copies: 2 + 2

Residue numbers refer to the chain shown, from its start. In names and notes the source's numbering stands.

One assay concerns the target T1, human FcγRIa (human, UniProt P12314 16-292, limits assumed).
T1 construct: also called FcgRIa; CD64
Nature of the assay: SPR (Biacore); binding amount divided by that of control IL6R-BF648/IL6R-L, x100. (In general: Surface plasmon resonance follows binding to a sensor surface in real time, without labels.)
T1 sequence (P12314 16-292 limits assumed): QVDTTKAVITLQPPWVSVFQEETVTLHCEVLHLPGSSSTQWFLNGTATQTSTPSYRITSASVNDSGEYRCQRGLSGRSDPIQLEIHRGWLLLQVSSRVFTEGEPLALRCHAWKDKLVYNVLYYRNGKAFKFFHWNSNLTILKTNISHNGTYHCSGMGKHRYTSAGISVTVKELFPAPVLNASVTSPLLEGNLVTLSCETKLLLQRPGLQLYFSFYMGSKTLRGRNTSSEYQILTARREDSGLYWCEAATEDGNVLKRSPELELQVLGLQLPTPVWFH
Method: (§1) According to the following method, relative binding activities were calculated for the results of analyzing interactions with the respective FcγRs.
Regarding B1, the relative binding activity was 118 % of IL6R-BF648/IL6R-L.
On the same count and under the same terms, the same measure for B2: 68 % of IL6R-BF648/IL6R-L; for B3: 109 % of IL6R-BF648/IL6R-L.
As for B4, the relative binding activity is 89 % of IL6R-BF648/IL6R-L.
On the same count and under the same terms, as for B5, the figure is 69 % of IL6R-BF648/IL6R-L; as for B6, 50 % of IL6R-BF648/IL6R-L.
Turning to B7, the relative binding activity is 71 % of IL6R-BF648/IL6R-L.
Regarding B8, the relative binding activity was 128 % of IL6R-BF648/IL6R-L.
Regarding B9, the relative binding activity was 125 % of IL6R-BF648/IL6R-L.
Same read-out and setting: the same measure for B10: 68 % of IL6R-BF648/IL6R-L; for B11: 56 % of IL6R-BF648/IL6R-L.

In another assay the target is T2, human FcγRIIa type H (human, UniProt P12318 36-217).
T2 construct: also called FcgRIIaH; FcγRIIa(H)
T2 sequence: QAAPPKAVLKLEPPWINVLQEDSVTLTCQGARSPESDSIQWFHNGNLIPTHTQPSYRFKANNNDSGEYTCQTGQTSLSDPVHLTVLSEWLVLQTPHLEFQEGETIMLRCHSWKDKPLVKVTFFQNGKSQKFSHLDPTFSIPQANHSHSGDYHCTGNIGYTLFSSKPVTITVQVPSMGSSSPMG
The assay is described as above.
Method: as §1
B1: the relative binding activity was 123 % of IL6R-BF648/IL6R-L.
Still for that read-out and setting: the same measure for B2: 205 % of IL6R-BF648/IL6R-L.
With B3, the relative binding activity is 122 % of IL6R-BF648/IL6R-L.
The same measure, in the same setting: as for B4, the figure is 195 % of IL6R-BF648/IL6R-L.
In the case of B5, the relative binding activity is 395 % of IL6R-BF648/IL6R-L.
Consider B6, for which the relative binding activity is 224 % of IL6R-BF648/IL6R-L.
Still for that read-out and setting: the same measure for B7: 294 % of IL6R-BF648/IL6R-L.
The same measure, in the same setting: as for B9, the figure is 145 % of IL6R-BF648/IL6R-L.
Consider B10, for which the relative binding activity was 344 % of IL6R-BF648/IL6R-L.
Consider B11, for which the relative binding activity is 183 % of IL6R-BF648/IL6R-L.

For the next assay, the target named is T3, human FcγRIIb (human, UniProt P31994 43-217, limits assumed).
T3 construct: also called FcgRIIb; FcγIIB
T3 sequence: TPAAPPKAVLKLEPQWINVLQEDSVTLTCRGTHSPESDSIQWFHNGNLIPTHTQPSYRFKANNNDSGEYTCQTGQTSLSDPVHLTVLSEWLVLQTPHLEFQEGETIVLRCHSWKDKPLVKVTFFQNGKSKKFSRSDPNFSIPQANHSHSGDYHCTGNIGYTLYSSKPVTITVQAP
The description is as above.
Method: as §1
Take B1: the relative binding activity was 169 % of IL6R-BF648/IL6R-L.
The same measure, in the same setting: the same measure for B2: 157 % of IL6R-BF648/IL6R-L; for B3: 172 % of IL6R-BF648/IL6R-L; for B4: 157 % of IL6R-BF648/IL6R-L.
Regarding B5, the relative binding activity is 178 % of IL6R-BF648/IL6R-L.
The same measure, in the same setting: as for B7, the figure is 179 % of IL6R-BF648/IL6R-L; as for B8, 165 % of IL6R-BF648/IL6R-L.
On to B11, for which the relative binding activity was 177 % of IL6R-BF648/IL6R-L.

For another assay, the target named is T4, human FcγRIIIa type V (human, UniProt P08637 17-208, limits assumed).
T4 construct: The assay used allotype V158; also called FcgRIIIaV; FcγRIIIa(V)
The assay is described as above.
T4 sequence (P08637 other isoform, or with tags, fused parts or gaps limits assumed): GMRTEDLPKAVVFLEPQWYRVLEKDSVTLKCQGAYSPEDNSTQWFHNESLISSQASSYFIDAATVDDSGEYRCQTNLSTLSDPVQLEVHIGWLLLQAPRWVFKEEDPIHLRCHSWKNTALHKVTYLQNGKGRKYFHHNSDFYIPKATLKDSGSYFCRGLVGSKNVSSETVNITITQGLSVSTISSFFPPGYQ
Method: as §1
With B1, the relative binding activity is 100 % of IL6R-BF648/IL6R-L.
The same measure, in the same setting: as for B2, the figure is 124 % of IL6R-BF648/IL6R-L; as for B3, 118 % of IL6R-BF648/IL6R-L; as for B4, 137 % of IL6R-BF648/IL6R-L.
Same read-out and setting: as for B5, the figure is 249 % of IL6R-BF648/IL6R-L; as for B6, 155 % of IL6R-BF648/IL6R-L.
The same measure, in the same setting: the same measure for B7: 206 % of IL6R-BF648/IL6R-L; for B8: 87 % of IL6R-BF648/IL6R-L; for B9: 142 % of IL6R-BF648/IL6R-L.
Turning to B10, the relative binding activity is 221 % of IL6R-BF648/IL6R-L.
The same measure, in the same setting: the same measure for B11: 141 % of IL6R-BF648/IL6R-L.

For the next assay, the target named is T5, human FcγRIa (human, UniProt P12314 16-292, limits assumed).
T5 construct: also called CD64
Nature of the assay: SPR (Biacore), FcγR over captured antibody; amount bound relative to IL6R-BF648/IL6R-L x100.
T5 sequence (P12314 16-292 limits assumed): as the sequence (P12314 16-292 limits assumed) above
With B12, the relative binding is 101 relative value (IL6R-BF648/IL6R-L = 100).
Take B13: the relative binding is 100 relative value (IL6R-BF648/IL6R-L = 100).
B14: the relative binding is 118 relative value (IL6R-BF648/IL6R-L = 100).
B15: the relative binding was 140 relative value (IL6R-BF648/IL6R-L = 100).
The same measure, in the same setting: as for B16, the figure is 117 relative value (IL6R-BF648/IL6R-L = 100); as for B17, 60 relative value (IL6R-BF648/IL6R-L = 100).

The target in the next assay is T6, human FcγRIIa type R (human, UniProt P12318 36-217).
T6 construct: also called FcγRIIaR; FcγRIIa(R)
T6 chain: T2 sequence with H133R
The description is as above.
On to B12, for which the relative binding is 132 relative value (IL6R-BF648/IL6R-L = 100).
In the case of B13, the relative binding was 100 relative value (IL6R-BF648/IL6R-L = 100).
The same measure, in the same setting: the same measure for B14: 155 relative value (IL6R-BF648/IL6R-L = 100); for B15: 650 relative value (IL6R-BF648/IL6R-L = 100).
On the same count and under the same terms, as for B16, the figure is 181 relative value (IL6R-BF648/IL6R-L = 100).
For B17, the relative binding was 81 relative value (IL6R-BF648/IL6R-L = 100).

For another assay, the target named is T7, human FcγRIIa type H (human, UniProt P12318 36-217).
T7 construct: Whole entry named for FcγRIIa allotype H131 (AAH20823.1); also called FcγRIIaH; FcγRIIa(H)
T7 sequence: T2 sequence
The assay is described as above.
For B12, the relative binding was 128 relative value (IL6R-BF648/IL6R-L = 100).
B13: the relative binding is 100 relative value (IL6R-BF648/IL6R-L = 100).
Take B14: the relative binding was 135 relative value (IL6R-BF648/IL6R-L = 100).
Still for that read-out and setting: the same measure for B15: 1670 relative value (IL6R-BF648/IL6R-L = 100).
On to B16, for which the relative binding was 133 relative value (IL6R-BF648/IL6R-L = 100).
On the same count and under the same terms, the same measure for B17: 93 relative value (IL6R-BF648/IL6R-L = 100).

A further assay concerns the target T8, human FcγRIIb (human, UniProt P31994 43-217).
T8 construct: also called FcγIIB
T8 sequence: T3 sequence
The assay is described as above.
Turning to B12, the relative binding was 104 relative value (IL6R-BF648/IL6R-L = 100).
With B13, the relative binding is 100 relative value (IL6R-BF648/IL6R-L = 100).
As to B14, the relative binding was 113 relative value (IL6R-BF648/IL6R-L = 100).
With B15, the relative binding is 62 relative value (IL6R-BF648/IL6R-L = 100).
With B16, the relative binding is 110 relative value (IL6R-BF648/IL6R-L = 100).
On the same count and under the same terms, the same measure for B17: 103 relative value (IL6R-BF648/IL6R-L = 100).

For the next assay, the target named is T9, human FcγRIIIa type V (human, UniProt P08637 17-208, limits assumed).
T9 construct: also called FcγRIIIaV; FcγRIIIa(V)
The assay is described as above.
T9 sequence (P08637 other isoform, or with tags, fused parts or gaps limits assumed): as the sequence (P08637 other isoform, or with tags, fused parts or gaps limits assumed) above
For the molecule B12, the relative binding was 144 relative value (IL6R-BF648/IL6R-L = 100).
Same read-out and setting: the same measure for B13: 100 relative value (IL6R-BF648/IL6R-L = 100); for B14: 157 relative value (IL6R-BF648/IL6R-L = 100).
Consider B15, for which the relative binding was 3350 relative value (IL6R-BF648/IL6R-L = 100).
Same read-out and setting: as for B16, the figure is 145 relative value (IL6R-BF648/IL6R-L = 100); as for B17, 97 relative value (IL6R-BF648/IL6R-L = 100).

The values above are taken from patent US20140105889A1 (published 2014).
